Sequences and labels used below:
B1: PTP5_Tr0, GST-tagged recombinant PTP5 36 aa - 631 aa (domain or fragment)
chain: TYNNYTYNGYNNDGSKQVRCKRLLSEPAVEFDTIFDVFKESFLDQMGCSDQDKDEIKNAMKIYYDNIDMNALSNEIQTNDNFFNEFGNDVNSINKIMKTDITNEQGTSADNNTTENNVSTSQVDEQPEASTSGVERMKERSNLFANNLTEEKNDTGDIKKEENKSKPSQLDGNNHSETSSHQGEKNNENETEKKTDQNETGTKKPSKYTMNLDSPLLKGSSEGETSSKKAQEKSVEPTKKPSKYTMNLDSPLLKGSSGSETSSTKESNDSNGATKKPSKYTMNLDSPLLKGSSGGKTSSNKESNESNEPTKKPSKYTMNLDSPLLKGSSGGETSSNKESNENNEPTKKPSKYTMNLDSPLLKGSSEGETSSNKESNESNEPTKKPSKYTMNLDSPLLKGSSGGETSSNKESNENNEPTKKPSKYTMNLDSPLLKGSSEGETSSNKESNESNEPTKKPSKYTMNLDSPLLKGSSEGETSSNEKQEESNVATKKPSKYTLNLDSPLLKSETKSDVKRGSNKSFSLENIGKLDIGSLLAQNLELLKGFALNFQTLSLFFLVFVGQFYPKHFQKAAIFIGMVNVFLECKRLYGRSQKKLK
notes: not shown: GST, N-terminal, kept
B2: recombinant PfPV1 (P. falciparum Parasitophorous Vacuolar protein 1), His-tagged (natural protein)
chain: VVAPKSAEAVHTLTAKLDTENKAHQKYIDIINGVFSENMENFVFSITTSNGFTCSINKLDVIFDNKVTGMQKVFSDENVQYIKEASLEFKNNLLEYMKGVMPSENDFSNVRKEFQKVCVKYFSELRRKFFQIYRDPNNKNQNEDNVDNHMNIEEISQEFFSGFNPFGTMKIRKEQNPDLSQKDSLILNENNNDSLTSADQKNNNMVPMENRSFSYSQQSSHVVSFDGHDEHVEQQEQHSGDNTQEDKDQLMDLPFNKDKVFSTFLKNVTLLIEGNCTEAQQQAQEQTQEQTEEQEEEQNEKEIESDKQVQKDGEQKENDVQKKQKANAFTIQFSSSLSRKHISTTCNASSGNVFLRKGNKPFEHFNSPNFENMMKGVFGIIQNPFENGQPTFPFFKNINSISGIGNVDIPKNFMNDFLNNGNDQNTPISS
notes: also called His-tagged purified recombinant PfPV1; not shown: His6, C-terminal, kept
B3: Pf3D7_0801000N, N-terminal truncate of Pf3D7_0801000 spanning 93 aa - 494 aa (domain or fragment)
chain: GANPESISLGYELSEKDEGNKNDLINSATDVSTELENLKERLFPELELYTNDQNSRNNTPNLRKGSLGFDSFKKLELGTLNQFDKDKMINLKDETNMNEFEGFLGRNSMASNVVTSELFDEPVDDSSSTTTSTGTKLQNVPSNDNNGELLKDEPIDDYINNNSKVESEDNYYAQQNMQSQSKDNYASEQNVADQSTDNYPTQHDVPVQLRDNYASEQEYFDRGEQLNDVSADNNTSNKLKDEPVDNNTSNKLKDEPVDNNTSNKLKDEPVDDNTSNKLKDEPVDNNTINKLKDEPVDDNTSNILKDEPVDDHAGKHLKDEPVDDHAGKHMKDEPVDIDRTNIKKGLNEQHVNPWTTTLADLKNINNSMKIEKNNKSNEQVKNTSVSKSCDIIKPSKFNKKNL

Assay [1] has as its target recombinant PfPV1 (P. falciparum Parasitophorous Vacuolar protein 1), His-tagged (P. falciparum 3D7) (UniProt Q8II72). The assay can be described thus: SPR; Biacore X100, CM5 chip, […]; HBS-EP+ (10 mM HEPES pH 7.4, 150 mM NaCl, 3 mM EDTA, 0.05% P20); single-cycle kinetics, global fit. For orientation: SPR reads the build-up and loss of mass on a sensor chip optically.
For assay [2] the target is unchanged. The assay can be described thus: SPR; Biacore X100, CM5 chip, […]; HBS-EP+ (10 mM HEPES pH 7.4, 150 mM NaCl, 3 mM EDTA, 0.05% P20); multi-cycle kinetics, global fit.
Assay [3] concerns the target B2. Description: SPR; Biacore X100, CM5 chip, […]; HBS-EP+ (10 mM HEPES pH 7.4, 150 mM NaCl, 3 mM EDTA, 0.05% P20); single-cycle kinetics, global fit. The note with it: both partners purified.
In assay [4] the target is B1. The assay is described as above. The settings on record: both partners purified.
Assay [5] addresses T1, recombinant PfPV1 (P. falciparum Parasitophorous Vacuolar protein 1), His-tagged (P. falciparum 3D7, UniProt Q8II72 23-452).
T1 chain: B2 chain
The assay can be described thus: SPR.

The record followed here is publication PMC5829233, “PV1, a novel Plasmodium falciparum merozoite dense granule protein, interacts with exported protein in infected erythrocytes” (Scientific Reports, 2018).

“PTP5_Tr2, GST-tagged recombinant PTP5 537 aa - 631 aa (domain or fragment)”: the Kd in assay [1] is 1.24 nM.

As to “PTP5_Tr1, GST-tagged recombinant PTP5 36 aa - 334 aa (domain or fragment)”, the Kd in assay [2] stood at 938 nM.

On to B1, for which the “stoichiometry N” value in assay [3] was found to be 1.

As to B2, the Kd in assay [4] came out at 2.71 nM.

Turning to B3, in assay [5], the Kd is 45.4 nM.

One may read the Kd as the equilibrium constant for the complex coming apart. One may read the stoichiometry N as a count of units in the complex or per binding partner.
